Measured values: the supplement of paper PMC7125110
± gives the standard error. For some assays here: This sample holds only a part of the variants without activity.

B1: glmS ribozyme (parent)
chain: AUAAAAGCGCCAGAACUACAGAAAUGUAGUUGACGAGGAGGAGGUUUAUCGAAUUUUCGGCGGAUGCCUCCAAA

Assays:
Conditions in all cases: with glucosamine-6-phosphate
[1] = variants of: B1; assay: kcat; higher = faster cleavage; RNA array
How it was run: (§1)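 Barcoded glmS ribozyme variants on sequenced MiSeq chips were transcribed in situ by E. coli RNA polymerase and tracked through a hybridised Cy3 probe at 37 °C. Glucosamine-6-phosphate (40 μM to 10 mM) in HEPES/KCl/Mg(OAc)2 buffer was flowed in, and tiles were imaged over ~14 h. Signals were normalised to baseline and to non-cleaving reference variants; per-tile medians were fit to one- or two-exponential decays to give kobs. kcat and KM came from weighted Michaelis–Menten fits across concentrations.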

[2] = variants of: B1; assay: KM; higher = weaker cofactor use; RNA array
How it was run: as §1

[3] = variants of: B1; assay: self-cleavage kobs at 40 uM GlcN6P; higher = faster cleavage; RNA array
How it was run: as §1

[4] = variants of: B1; assay: self-cleavage kobs at 160 uM GlcN6P; higher = faster cleavage; RNA array
How it was run: as §1

[5] = variants of: B1; assay: self-cleavage kobs at 640 uM GlcN6P; higher = faster cleavage; RNA array
How it was run: as §1

[6] = variants of: B1; assay: self-cleavage kobs at 2500 uM GlcN6P; higher = faster cleavage; RNA array
How it was run: as §1

[7] = variants of: B1; assay: self-cleavage kobs at 10000 uM GlcN6P; higher = faster cleavage; RNA array
How it was run: as §1

Row | Variant | kcat [1] [s⁻¹] | KM [2] [mM] | self-cleavage kobs at 40 uM GlcN6P [3] [s⁻¹] | self-cleavage kobs at 160 uM GlcN6P [4] [s⁻¹] | self-cleavage kobs at 640 uM GlcN6P [5] [s⁻¹] | self-cleavage kobs at 2500 uM GlcN6P [6] [s⁻¹] | self-cleavage kobs at 10000 uM GlcN6P [7] [s⁻¹]
1 | A14G A48U | 0.00132 ± 0.00027 | 2.32 ± 0.78 | 3.34e-05 ± 1.3e-05 | 6.56e-05 ± 1.5e-05 | 0.000335 ± 5.6e-05 | 0.000889 ± 0.00016 | 0.000999 ± 0.00013
2 | A14G A52U | 0.000706 ± 1.3e-05 | 3.89 ± 0.12 | – | – | 9.98e-05 ± 1.6e-05 | 0.000274 ± 5.2e-05 | 0.000509 ± 6.5e-05
3 | A14C U49G | 0.000151 ± 5.2e-06 | 6.69 ± 0.57 | – | – | – | – | 9.07e-05 ± 1.3e-05
4 | G13U A64C | 1.02e-05 ± 3e-06 | – | – | – | – | – | –
5 | A14C A39C | 0.000549 ± 0.00015 | 4.66 ± 2 | – | – | 5.77e-05 ± 9.6e-06 | 0.000254 ± 3.3e-05 | 0.000346 ± 4.9e-05
6 | G13U U65G | 0.000372 ± 2.8e-05 | 3.75 ± 0.54 | – | – | 5.82e-05 ± 1.2e-05 | 0.000136 ± 2.7e-05 | 0.000276 ± 3.5e-05
7 | A14C A15U | 0.000353 ± 2.4e-05 | 3.64 ± 0.38 | – | – | 5.17e-05 ± 6.8e-06 | 0.000148 ± 1.9e-05 | 0.000256 ± 3.6e-05
8 | A14C A42G | 0.0097 ± 0.0025 | 2.69 ± 0.89 | 0.000181 ± 2e-05 | 0.000475 ± 7.2e-05 | 0.00154 ± 0.00023 | 0.00494 ± 0.00075 | 0.00788 ± 0.0011
